How the values were obtained:
[1] = target: EGFRvIII recombinant protein (rhEGFRvIII protein) used in ELISA (human) (UniProt P00533); test: concentration-dependent ELISA in triplicate, Prism nonlinear regression (apparent affinity)
[2] = target: T1, EGFRvIII-specific peptide (…); test: as above
T1 sequence (peptide): LEEKKGNYVVTDHC

Kd [1]: 2.35 nM
Kd [2]: 0.272 nM
B1: B4A3 scFv protein (anti-EGFRvIII scFv) (scFv, part only; not given: scFv linker, domain order, tags, V domains shown, not shown: another chain or arm of the molecule; small tags and cut ends)
VH: EVQLLESGGGLVQPGGSLRLSCAASGFTFSNYYMSWVRQAPGKGLEWVSGTSPNGGSKYYADSVKGRFTISRDNSKNTLYLQMNSLRAEDTAVYYCAKGRRKLRATRFDYWGQGTLVTVSS
VL: QSVLTQPPSASGTPGQRVTISCTGSSSNIGNNYVSWYQQHPGTAPKLLIYSDSNRPSGVPDRFSGSKSGTSASLAISGLRSEDEADYYCATWDASLSAYVFGGGTKLTVL

From patent US20190031761A1
